Measured values from patent publication US20240376186A1 (published 2024).

B1: EWE-hC3Nb1 (VHH)
VHH: QVQLVETGGGLVQAGGSLRLSCAASGSIFSINAMGWFRQAPGKEREFVATINRSGGRTYYADSVKGRFTISRDNGKNMVYLQMHSLKPEDTAIYYCAAGTGWSPQTDNEYNYWGQGTQVTVSS
B2: EWEnH (other)
chain: EWEQVQLVETGGGLVQAGGSLRLSCAASGSIFSINAMGWFRQAPGKEREFVATINRSGGRTYYADSVKGRFTISRDNGKNMVYLQMHSLKPEDTAIYYCAAGTGWSPQTDNEYNYWGQGTQVTVSSGGGGSGGGGSGGGGSGGGGSRPCGHPGDTPFGTFTLTGGNVFEYGVKAVYTCNEGYQLLGEINYRECDTDGWTNDIPICEVVKCLPVTAPENGKIVSSAMEPDREYHFGQAVRFVCNSGYKIEGDEEMHCSDDGFWSKEKPKCVEISCKSPDVINGSPISQKIIYKENERFQYKCNMGYEYSERGDAVCTESGWRPLPSCEEA
B3: EWEµH (other)
chain: EWEQVQLVETGGGLVQAGGSLRLSCAASGSIFSINAMGWFRQAPGKEREFVATINRSGGRTYYADSVKGRFTISRDNGKNMVYLQMHSLKPEDTAIYYCAAGTGWSPQTDNEYNYWGQGTQVTVSSGGGGSGGGGSGGGGSGGGGSRPCGHPGDTPFGTFTLTGGNVFEYGVKAVYTCNEGYQLLGEINYRECDTDGWTNDIPICEVVKCLPVTAPENGKIVSSAMEPDREYHFGQAVRFVCNSGYKIEGDEEMHCSDDGFWSKEKPKCVEISCKSPDVINGSPISQKIIYKENERFQYKCNMGYEYSERGDAVCTESGWRPLPSCEEAGGGGGGGGGGGGGKCGPPPPIDNGDITSFPLSVYAPASSVEYQCQNLYQLEGNKRITCRNGQWSEPPKCLHPCVISREIMENYNIALRWTAKQKLYSRTGESVEFVCKRGYRLSSRSHTLRTTCWDGKLEYPTCAKRENLYFQG

Target: C3b (UniProt P01024 23-667; P01024 749-1663)
Assay: BLI

Chain of C3b (P01024 23-667, chain 1 of 2): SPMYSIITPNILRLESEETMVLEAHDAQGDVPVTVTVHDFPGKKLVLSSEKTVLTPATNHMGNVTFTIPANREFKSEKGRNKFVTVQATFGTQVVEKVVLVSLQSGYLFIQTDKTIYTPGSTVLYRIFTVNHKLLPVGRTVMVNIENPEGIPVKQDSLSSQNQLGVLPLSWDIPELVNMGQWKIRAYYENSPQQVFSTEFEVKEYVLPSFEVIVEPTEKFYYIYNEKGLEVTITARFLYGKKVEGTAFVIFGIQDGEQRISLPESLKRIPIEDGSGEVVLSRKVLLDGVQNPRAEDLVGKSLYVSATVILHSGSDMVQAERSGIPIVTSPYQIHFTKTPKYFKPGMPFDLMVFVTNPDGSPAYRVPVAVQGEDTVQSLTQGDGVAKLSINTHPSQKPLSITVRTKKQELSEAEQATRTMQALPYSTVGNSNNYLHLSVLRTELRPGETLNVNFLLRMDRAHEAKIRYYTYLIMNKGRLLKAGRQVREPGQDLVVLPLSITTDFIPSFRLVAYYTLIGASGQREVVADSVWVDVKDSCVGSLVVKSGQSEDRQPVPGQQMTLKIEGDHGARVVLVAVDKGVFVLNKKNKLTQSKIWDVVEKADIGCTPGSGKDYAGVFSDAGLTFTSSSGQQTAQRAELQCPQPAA
Chain of C3b (P01024 749-1663, chain 2 of 2): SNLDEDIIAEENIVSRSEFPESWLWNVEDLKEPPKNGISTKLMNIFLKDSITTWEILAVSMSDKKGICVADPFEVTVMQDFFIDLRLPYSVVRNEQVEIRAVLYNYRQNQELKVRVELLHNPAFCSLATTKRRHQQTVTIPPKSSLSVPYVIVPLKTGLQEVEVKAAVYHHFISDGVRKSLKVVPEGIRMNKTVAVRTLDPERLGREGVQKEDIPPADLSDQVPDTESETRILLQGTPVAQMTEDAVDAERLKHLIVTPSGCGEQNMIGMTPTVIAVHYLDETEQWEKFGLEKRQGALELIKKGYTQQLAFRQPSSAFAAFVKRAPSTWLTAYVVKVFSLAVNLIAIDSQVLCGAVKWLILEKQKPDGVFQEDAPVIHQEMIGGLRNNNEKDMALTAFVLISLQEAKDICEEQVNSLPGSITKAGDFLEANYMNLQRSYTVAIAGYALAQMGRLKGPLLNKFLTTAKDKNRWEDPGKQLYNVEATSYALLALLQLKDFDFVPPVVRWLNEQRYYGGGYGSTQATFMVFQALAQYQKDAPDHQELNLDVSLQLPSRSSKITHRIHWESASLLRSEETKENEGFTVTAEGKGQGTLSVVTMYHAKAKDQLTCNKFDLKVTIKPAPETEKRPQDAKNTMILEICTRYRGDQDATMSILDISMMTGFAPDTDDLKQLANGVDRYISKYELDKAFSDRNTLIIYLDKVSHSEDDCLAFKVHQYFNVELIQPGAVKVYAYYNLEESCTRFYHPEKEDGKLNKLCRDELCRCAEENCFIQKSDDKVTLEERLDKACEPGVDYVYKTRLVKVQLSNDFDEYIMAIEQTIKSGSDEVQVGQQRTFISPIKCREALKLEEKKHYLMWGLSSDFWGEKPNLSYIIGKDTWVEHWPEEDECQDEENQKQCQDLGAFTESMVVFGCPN

Row | Kd | Binder
1 | 3 nM | B1
2 | 7.1 nM | B2
3 | 0.4 nM | B3
